# Measurements published in the supplement of paper PMC9112550, “Optimization of the antimicrobial peptide Bac7 by deep mutational scanning” (BMC Biology, 2022).
# Test system: Escherichia coli TOP10
# Test: shrunken log2 fold change of peptide-encoding DNA abundance (4.5 h post-induction vs induction); higher = less antimicrobial activity (less host growth inhibition)
# Details: time post-induction: 4.5 h; library: site-saturation at positions 5, 18, 19, 20
# 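Note: peptides expressed intracellularly from a pBAD plasmid library in pooled LB shake-flask culture, induced with 0.3% L-arabinose, DNA abundance read by NGS, three biological replicates, DESeq2 with apeglm shrinkage.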
row,Sequence,shrunken log2 fold change
1,RRIRDRPPRLPRPRPRPISNPRP,-0.175
2,RRIRIRPPRLPRPRPRPFIMPRP,-0.187
3,RRIRQRPPRLPRPRPRPDMGPRP,0.0191
4,RRIRERPPRLPRPRPRPQVAPRP,-0.366
5,RRIRWRPPRLPRPRPRPPYLPRP,-0.184
6,RRIRQRPPRLPRPRPRPVCFPRP,-0.139
7,RRIRCRPPRLPRPRPRPKYQPRP,-0.0383
8,RRIRLRPPRLPRPRPRPLLTPRP,0.0657
9,RRIRGRPPRLPRPRPRPEKGPRP,0.136
10,RRIRFRPPRLPRPRPRPQIWPRP,-0.0457
11,RRIRDRPPRLPRPRPRPSKGPRP,-0.0731
12,RRIRCRPPRLPRPRPRPKWTPRP,-0.0568
13,RRIRVRPPRLPRPRPRPGRKPRP,-0.0493
14,RRIRTRPPRLPRPRPRPELLPRP,0.39
15,RRIRKRPPRLPRPRPRPMFMPRP,-0.116
16,RRIRLRPPRLPRPRPRPHHIPRP,-0.343
17,RRIRHRPPRLPRPRPRPWLEPRP,-0.0848
18,RRIRHRPPRLPRPRPRPPCSPRP,-0.217
19,RRIRPRPPRLPRPRPRPEGCPRP,0.17
20,RRIRLRPPRLPRPRPRPLCTPRP,0.0663

row,Sequence,shrunken log2 fold change
1,RRIRARPPRLPRPRPRPKIFPRP,-0.0226
2,RRIRTRPPRLPRPRPRPKNPPRP,-0.0748
3,RRIRERPPRLPRPRPRPTCSPRP,-0.397
4,RRIRYRPPRLPRPRPRPIFGPRP,-0.281
5,RRIRYRPPRLPRPRPRPRHHPRP,-0.846
6,RRIRDRPPRLPRPRPRPANGPRP,-0.0137
7,RRIRDRPPRLPRPRPRPYLLPRP,-0.179
8,RRIRIRPPRLPRPRPRPSARPRP,-0.067
9,RRIRERPPRLPRPRPRPILPPRP,-0.182
10,RRIRERPPRLPRPRPRPTMQPRP,0.0612
11,RRIRSRPPRLPRPRPRPHVFPRP,2.95
12,RRIRKRPPRLPRPRPRPWHLPRP,-0.596
13,RRIRCRPPRLPRPRPRPPYKPRP,-0.511
14,RRIRTRPPRLPRPRPRPSTTPRP,-0.0853
15,RRIRNRPPRLPRPRPRPIKYPRP,-0.068
16,RRIRERPPRLPRPRPRPIAEPRP,0.255
17,RRIRWRPPRLPRPRPRPQQTPRP,0.103
18,RRIRERPPRLPRPRPRPLDHPRP,-0.155
19,RRIRNRPPRLPRPRPRPPKMPRP,-0.168
20,RRIRLRPPRLPRPRPRPGLIPRP,0.045

row,Sequence,shrunken log2 fold change
1,RRIRMRPPRLPRPRPRPHVNPRP,-0.132
2,RRIRQRPPRLPRPRPRPVSQPRP,0.00815
3,RRIRERPPRLPRPRPRPFRHPRP,0.0628
4,RRIRYRPPRLPRPRPRPDCCPRP,-0.115
5,RRIRCRPPRLPRPRPRPPDLPRP,-0.00662
6,RRIRFRPPRLPRPRPRPFSWPRP,-0.00262
7,RRIRDRPPRLPRPRPRPTIYPRP,0.0468
8,RRIRDRPPRLPRPRPRPVWKPRP,-0.0168
9,RRIRFRPPRLPRPRPRPQFFPRP,-0.193
10,RRIRLRPPRLPRPRPRPCYMPRP,-0.308
11,RRIRGRPPRLPRPRPRPGLYPRP,0.341
12,RRIRMRPPRLPRPRPRPSTGPRP,0.17
13,RRIRERPPRLPRPRPRPSANPRP,-0.35
14,RRIRCRPPRLPRPRPRPGTDPRP,-0.00121
15,RRIRSRPPRLPRPRPRPWWAPRP,-0.0137
16,RRIRHRPPRLPRPRPRPQATPRP,0.00115
17,RRIRSRPPRLPRPRPRPGRAPRP,1.02
18,RRIRSRPPRLPRPRPRPGYLPRP,-0.388
19,RRIRTRPPRLPRPRPRPIGAPRP,0.089
20,RRIRSRPPRLPRPRPRPCDPPRP,0.0442
